How the values were obtained:
[1] = tested on: experimental allergic encephalomyelitis (EAE) in (SJL/JxBALB/c)FI mice; test: Blocking of experimental allergic encephalomyelitis by injection with complete adjuvant; type: in vivo, mouse; settings: for Incidence of EAE: antigen included in the encephalitogenic inoculum, animals with EAE/animals in group; for % Blocking: blocking of EAE versus control without antigen; for Mean Score: disease score 0 (healthy) to 5 (dead); for Mean Onset: animals not protected, onset = day of score of at least 1
Description: Blocking of Experimental Allergic Encephalomyelitis—To test the physiological activity of TV-markers, protection from experimental allergic encephalomyelitis (EAE) was investigated in mice. Injection of Copolymer 1 in complete Freund's adjuvant together with the encephalitogen can block EAE essentially as described in Aharoni et al., 17 Eur. J. Immunol. 23 (1993). Other researchers have observed that the therapeutic effect of Copolymer 1 in multiple sclerosis patients is also associated with the induction of TH2 cells. Lahat et al., 244 J. Neurol. 129 (1997). In this example, EAE is blocked by different polypeptides of the present invention.
Pertussis toxin (0.25 ml, 250 ng, Sigma) is injected intravenously, immediately after and 48 hr later. […] 2156 (1979).
EAE blocking by injection with complete adjuvant—Each antigen being tested was included in the encephalitogenic inoculum. […] Also shown is the mean onset of EAE in animals which were not protected. Disease intensity is scored daily in mice with a score of zero (0=healthy) to five (5=dead).

[2] = tested on: anti-Cop-1 (3-3-9) monoclonal antibody; test: RIA: binding of anti-Cop 1 monoclonal antibody to coated antigen; settings: for % Cop 1 binding: relative to Cop 1 reference standard 03494; for Binding of mAb cpm: wells coated with 2 μg/ml antigen, 125I-goat anti-mouse IgG bound
[3] = tested on: anti-Cop-1 (3-1-45) monoclonal antibody; test: as above; settings: for % Cop 1 binding: relative to Cop 1 reference standard 03494; for Binding of mAb cpm: wells coated with 2 μg/ml antigen, 125I-goat anti-mouse IgG bound
[4] = tested on: anti-Cop-1 (5-7-2) monoclonal antibody; test: as above; settings: for % Cop 1 binding: relative to Cop 1 reference standard 03494; for Binding of mAb cpm: wells coated with 2 μg/ml antigen, 125I-goat anti-mouse IgG bound
[5] = tested on: BALB/c-Ts-Cop-1 T cell line; test: Proliferation of Cop 1 specific T cell line (3H-thymidine uptake); settings: for 3H-Thymidine incorporation (% Cop 1): 10 μg antigen, relative to 03494; for 3H-Thymidine incorporation cpm: cultured with 10 μg antigen
[6] = tested on: L-22-1 T cell clone; test: as above; settings: for 3H-Thymidine incorporation (% Cop 1): 10 μg antigen, relative to 03494; for 3H-Thymidine incorporation cpm: cultured with 10 μg antigen
[7] = tested on: SC-103 Cop 1 specific T cell clone; test: as above; settings: for 3H-Thymidine incorporation (% Cop 1): 10 μg antigen, relative to 03494; for 3H-Thymidine incorporation cpm: cultured with 10 μg antigen
[8] = tested on: SC-14 Cop 1 specific T cell clone; test: as above; settings: for 3H-Thymidine incorporation (% Cop 1): 10 μg antigen, relative to 03494; for 3H-Thymidine incorporation cpm: cultured with 10 μg antigen

Row | Molecule | Incidence of EAE [1] | % Blocking [1] | Mean Score [1] | % Cop 1 binding [2] | Binding of mAb cpm [2] | % Cop 1 binding [3] | Binding of mAb cpm [3] | % Cop 1 binding [4] | Binding of mAb cpm [4] | 3H-Thymidine incorporation (% Cop 1) [5] | 3H-Thymidine incorporation cpm [5] | 3H-Thymidine incorporation (% Cop 1) [6] | 3H-Thymidine incorporation cpm [6] | 3H-Thymidine incorporation (% Cop 1) [7] | 3H-Thymidine incorporation cpm [7] | 3H-Thymidine incorporation (% Cop 1) [8] | 3H-Thymidine incorporation cpm [8] | Mean Onset [1]
1 | AKKYAKKAKAEKAKKAYKAAEAKKAAKYEKAAAEKAAAKEAAYEA [TV-45] | 0/10 | 100% | 0 | – | – | – | – | – | – | – | – | – | – | – | – | – | – | –
2 | AKKYAKKEKAAKKAYKKEAKAKAAEAAAKEAAYEA [TV-35] | – | – | – | (0) % | 1176 cpm | (0) % | 343 cpm | (1) % | 657 cpm | (28) % | 9465 cpm | (0) % | 225 cpm | (0) % | 438 cpm | (0) % | 884 cpm | –
3 | AKKYAKKEKAYAKKAEKAAKKAEAKAYKAAEAKKKAEAKYKAEAAKAAAKEAAYEA [TV-56] | – | – | – | (2) % | 1614 cpm | (6) % | 1581 cpm | (91) % | 9584 cpm | (59) % | 19545 cpm | (0) % | 232 cpm | (0) % | 237 cpm | (117) % | 3495 cpm | –
4 | AKKYAKKEKAYAKKAEKAAKKAEAKAYKAAEAKKKAKAEAKKYAKAAKAEKKEYAAAEAKYKAEAAKKAYKAEAAKAAAKEAAYEA (peptide) AKKYAKKEKAYAKKAEKAAKKAEAKAYKAAEAKKKAKAEAKKYAKAAKAEKKEYAAAEAKYKAEAAKKAYKAEAAKAAAKEAAYEA | 3/10 | 70% | 0.7 | (2) % | 1625 cpm | (6) % | 1606 cpm | (76) % | 8140 cpm | (44) % | 14694 cpm | (1) % | 418 cpm | (0) % | 298 cpm | (65) % | 2284 cpm | 12.0 days
5 | AKKYAKKAEKAYAKKAKAAKEKKAYAKKEAKAYKAAEAKKKAKAEAKKYAKEAAKAKKEAYKAEAKKYAKAAKAEKKEYAAAEAKKAEAAKAYKAEAAKAAAKEAAYEA (reversed-phase fraction 2 used for calibration) AKKYAKKAEKAYAKKAKAAKEKKAYAKKEAKAYKAAEAKKKAKAEAKKYAKEAAKAKKEAYKAEAKKYAKAAKAEKKEYAAAEAKKAEAAKAYKAEAAKAAAKEAAYEA | 0/10 | 100% | 0 | – | – | – | – | – | – | – | – | – | – | – | – | – | – | –
6 | AKKYAKKEKAYAKAKKAEAKAAKKAKAEAKKYAKAAKAEKKEYAAAEAKYKAEAAKAAAKEAAYEA (peptide) AKKYAKKEKAYAKAKKAEAKAAKKAKAEAKKYAKAAKAEKKEYAAAEAKYKAEAAKAAAKEAAYEA | 6/10 | 40% | 2.8 | – | – | – | – | – | – | – | – | – | – | – | – | – | – | 11.7 days
7 | AKKYAKKEKAYAKKAEKAAKKAEAKAYKAAEAKKKAKAEAKKYAKAAKAEKKEYAAAEAKYKAEAAKAAAKEAAYEA (peptide) AKKYAKKEKAYAKKAEKAAKKAEAKAYKAAEAKKKAKAEAKKYAKAAKAEKKEYAAAEAKYKAEAAKAAAKEAAYEA | 1/9 | 89% | 0.2 | (6) % | 2265 cpm | (9) % | 2152 cpm | (37) % | 4259 cpm | (52) % | 17367 cpm | (1) % | 300 cpm | (0) % | 327 cpm | (83) % | 2701 cpm | 14.0 days

Reference: patent publication US6514938B1, “Copolymer 1 related polypeptides for use as molecular weight markers and for therapeutic use” (Yeda Research and Development Co. Ltd. at the Weizmann …, priority 1998, dated 2003)
